Results as given in patent publication US9890407B2, “Method for synthesizing cellulose in vitro” (University of Virginia Patent Foundation, priority 2013, dated 2018).

Assays:
cellulose synthesis [1] = assay: Cellulose synthesis activity of inverted membrane vesicles / PLs containing BcsA, BcsB or truncated BcsB; type: biochemical, Rhodobacter sphaeroides; details: for catalytic activity (HMW polymer formation): IMVs, 60 min 37° C., with c-di-GMP
Experimental: FIG. 1A-1C (also referred to as Example 1, FIG. 1): BcsA and BcsB are necessary for cellulose synthesis. (FIG. 1A) Inverted membrane vesicles containing either BcsA, BcsB, or both subunits were incubated for 60 min at 37° C. in the presence and absence of c-di-GMP and 0.25 μCi UDP-[^3H]-Glc. The synthesized polymer was purified by descending paper chromatography and quantified by scintillation counting. The amount of product obtained is shown relative to the product formed from IMVs containing BcsA and BcsB. Control reactions were performed with IMVs derived from cells containing an empty pET28a vector or in the absence of c-di-GMP or the presence of 20 mM EDTA. Results are shown in light and dark gray for components from Ec and Rs, respectively. (FIG. 1B) immuno-blotting of IMVs containing BcsA and BcsB. BcsA and BcsB were expressed with C-terminal poly-histidine- and FLAG-tags, respectively, and the equivalent amounts of IMVs used for activity assays were analyzed under non-reducing conditions by western blotting. […]
FIG. 6A-6C (also referred to as Example 1, FIG. 6): The membrane-associated domain of BesB is required for cellulose synthesis. […] IMVs containing wild-type BesA and the indicated BesB constructs were tested for cellulose synthase activity by quantifying the accumulation of radioactively labeled cellulose. […] (FIG. 6C) Western analysis of the analyzed IMVs and PLs. […] The equivalent amounts of IMVs used for activity assays were used to quantify the BcsA and BcsB expression levels. Vesicles containing WT and the BcsA-B-S684-r complex were analyzed on separate gels. […]
Gram-negative bacteria transport cellulose across the inner and outer bacterial membranes. […] To identify the complex components required for cellulose synthesis and translocation across the inner bacterial membrane, we expressed BcsA and BcsB from Escherichia coli (Ec) K12 and Rhodobacter sphaeroides (Rs) in E. coli C43 (28), prepared inverted membrane vesicles (IMVs), and analyzed them for cellulose synthesis activity. […]

cellulose synthesis [2] = type: biochemical, Rhodobacter sphaeroides

BcsA-B-S684: BcsA complexed with BcsB fragment N-terminally truncated to start at Ser684
catalytic activity after reconstitution into PLs (cellulose synthesis [1]; purified truncated complex in PLs): catalytically active

B1: BcsB: bacterial cellulose synthase B, periplasmic membrane-anchored subunit (SEQ ID NO:3) (protein)
chain: MDMRLLPFLFLGTLASMAAAQDAPMIVIEGLTSEEPQASPDAVAEAVPAAEVAPWIIPLRPLAETAQVGPLFRLQGQQARAAFRLFLPTEAVGGTLTLAQRSSIDILPESSQIIVRMNDQEIGRFTPRQFGALGAVTMPLGEAVRAGDNLVTIEAQHRHRIYCGADAEFDLWTEVDLSQSGVALPAAAIGTEPTSFIAALTAQAESGRPVEIRTPTPPDEATLRTLAQALGRPLPDEALPLALSKPWSAETGPTYARITLLPSDADRVSIRRGGDGAVVLVLEHPPEGSPNASLVADLLGATPTLPPPTLPQIPPGRVVTLADMGVDTILTDNRYFNRDIDFQLPDDWLLLASQKAQIGIDYGFAGGLPEGALLLVKVNGTTVRMLPLDRDAAPVKPRLDIRFPARLLHPGPNRLSFESVIPGNPPDQPCPASAGDLMQVLSSTDLEVPPSPRMQMADMARDLAQVTPASVHPATPDGLARTLPFMAAFREVPDAAPVDLTVAGLHDIATVPLNEEGLTPRLLALTLLPSTVSRLVERPATPAGPPANALAPLGAAPGEGVMPPLVESNWSDRAQTFVQATLQPVIQTVRRMLRPGDGNLAEWLATRKGTAMLLAPEPGKLWVILGPEAEPARVAEALAMAPRSPGGPRGQVAVLGSDGRWSSWSKPGLLPELREPVSLDNVRSVVGNVASARPPLLLGGMLGLAWISAAIAVGFVLRTRRKGLK
modifications: Rhodobacter sphaeroides
catalytic activity (HMW polymer formation) (cellulose synthesis [1]): catalytically inactive

B2: BcsA: bacterial cellulose synthase A, catalytic subunit (SEQ ID NO:1) (protein)
chain: MTVRAKARSPLRVVPVLLFLLWVALLVPFGLLAAAPVAPSAQGLIALSAVVLVALLKPFADKMVPRFLLLSAASMLVMRYWFWRLFETLPPPALDASFLFALLLFAVETFSISIFFLNGFLSADPTDRPFPRPLQPEELPTVDILVPSYNEPADMLSVTLAAAKNMIYPARLRTVVLCDDGGTDQRCMSPDPELAQKAQERRRELQQLCRELGVVYSTRERNEHAKAGNMSAALERLKGELVVVFDADHVPSRDFLARTVGYFVEDPDLFLVQTPHFFINPDPIQRNLALGDRCPPENEMFYGKIHRGLDRWGGAFFCGSAAVLRRRALDEAGGFAGETITEDAETALEIHSRGWKSLYIDRAMIAGLQPETFASFIQQRGRWATGMMQMLLLKNPLFRRGLGIAQRLCYLNSMSFWFFPLVRMMFLVAPLIYLFFGIEIFVATFEEVLAYMPGYLAVSFLVQNALFARQRWPLVSEVYEVAQAPYLARAIVTTLLRPRSARFAVTAKDETLSENYISPIYRPLLFTFLLCLSGVLATLVRWVAFPGDRSVLLVVGGWAVLNVLLVGFALRAVAEKQQRRAAPRVQMEVPAEAQIPAFGNRSLTATVLDASTSGVRLLVRLPGVGDPHPALEAGGLIQFQPKFPDAPQLERMVRGRIRSARREGGTVMVGVIFEAGQPIAVRETVAYLIFGESAHWRTMREATMRPIGLLHGMARILWMAAASLPKTARDFMDEPARRRRRHEEPKEKQAHLLAFGTDFSTEPDWAGELLDPTAQVSARPNTVAWGSN
modifications: Rhodobacter sphaeroides
catalytic activity (HMW polymer formation) (cellulose synthesis [1]): catalytically inactive

B3: E371A (protein)
chain: MGTVRAKARSPLRVVPVLLFLLWVALLVPFGLLAAAPVAPSAQGLIALSAVVLVALLKPFADKMVPRFLLLSAASMLVMRYWFWRLFETLPPPALDASFLFALLLFAVETFSISIFFLNGFLSADPTDRPFPRPLQPEELPTVDILVPSYNEPADMLSVTLAAAKNMIYPARLRTVVLCDDGGTDQRCMSPDPELAQKAQERRRELQQLCRELGVVYSTRERNEHAKAGNMSAALERLKGELVVVFDADHVPSRDFLARTVGYFVEDPDLFLVQTPHFFINPDPIQRNLALGDRCPPENEMFYGKIHRGLDRWGGAFFCGSAAVLRRRALDEAGGFAGETITEDAETALEIHSRGWKSLYIDRAMIAGLQPATFASFIQQRGRWATGMMQMLLLKNPLFRRGLGIAQRLCYLNSMSFWFFPLVRMMFLVAPLIYLFFGIEIFVATFEEVLAYMPGYLAVSFLVQNALFARQRWPLVSEVYEVAQAPYLARAIVTTLLRPRSARFAVTAKDETLSENYISPIYRPLLFTFLLCLSGVLATLVRWVAFPGDRSVLLVVGGWAVLNVLLVGFALRAVAEKQQRRAAPRVQMEVPAEAQIPAFGNRSLTATVLDASTSGVRLLVRLPGVGDPHPALEAGGLIQFQPKFPDAPQLERMVRGRIRSARREGGTVMVGVIFEAGQPIAVRETVAYLIFGESAHWRTMREATMRPIGLLHGMARILWMAAASLPKTARDFMDEPARRRRRHEEPKEKQAHLLAFGTDFSTEPDWAGELLDPTAQVSARPNTVAWGSNHHHHHHKLHHHHHH
increase of catalytic activity in the absence of c-di-GMP compared to wild type enzyme (cellulose synthesis [2]; no c-di-GMP, IMVs and PLs): approximately 6 fold

B4: R580A (protein)
chain: MGTVRAKARSPLRVVPVLLFLLWVALLVPFGLLAAAPVAPSAQGLIALSAVVLVALLKPFADKMVPRFLLLSAASMLVMRYWFWRLFETLPPPALDASFLFALLLFAVETFSISIFFLNGFLSADPTDRPFPRPLQPEELPTVDILVPSYNEPADMLSVTLAAAKNMIYPARLRTVVLCDDGGTDQRCMSPDPELAQKAQERRRELQQLCRELGVVYSTRERNEHAKAGNMSAALERLKGELVVVFDADHVPSRDFLARTVGYFVEDPDLFLVQTPHFFINPDPIQRNLALGDRCPPENEMFYGKIHRGLDRWGGAFFCGSAAVLRRRALDEAGGFAGETITEDAETALEIHSRGWKSLYIDRAMIAGLQPETFASFIQQRGRWATGMMQMLLLKNPLFRRGLGIAQRLCYLNSMSFWFFPLVRMMFLVAPLIYLFFGIEIFVATFEEVLAYMPGYLAVSFLVQNALFARQRWPLVSEVYEVAQAPYLARAIVTTLLRPRSARFAVTAKDETLSENYISPIYRPLLFTFLLCLSGVLATLVRWVAFPGDRSVLLVVGGWAVLNVLLVGFALRAVAEKQQRAAAPRVQMEVPAEAQIPAFGNRSLTATVLDASTSGVRLLVRLPGVGDPHPALEAGGLIQFQPKFPDAPQLERMVRGRIRSARREGGTVMVGVIFEAGQPIAVRETVAYLIFGESAHWRTMREATMRPIGLLHGMARILWMAAASLPKTARDFMDEPARRRRRHEEPKEKQAHLLAFGTDFSTEPDWAGELLDPTAQVSARPNTVAWGSNHHHHHHKLHHHHHH
dependence of catalytic activity on c-di-GMP (cellulose synthesis [2]; formation of cellulose or UDP, with and without 30 μM c-di-GMP): constitutively active
